Patent US7888090B2, “Mutants of O6-alkylguanine-DNA alkyltransferase” (Ecole Polytechnique Federale de Lausanne, priority 2004, dated 2011)

Experiments:
[1] = Expression yield of soluble GST-AGT fusion protein; parameters: species or system E. coli; conditions: comparator not stated
Procedure: Expression yield is measured in E. coli or in any other of the standard production cells for genetically modified proteins, e.g. yeast, or preferably insect cells, CHO cells or HeLa cells. For quantifying expression yield, AGT fusion proteins may be chosen such that the fusion partner allows easy purification and quantification. For example, expression yield in E. coli is determined by measuring and comparing the yield of soluble and insoluble GST-wild type AGT fusion protein and GST-mutant AGT fusion protein from parallel E. coli expression cultures. Samples of the soluble fractions and insoluble fractions (i.e. the inclusion bodies) after cell lysis are subjected to SDS-PAGE, and the band staining intensities of the corresponding AGT fusion proteins are compared. Soluble protein is quantified after purification of the fusion protein from cell extracts by affinity chromatography (e.g. for GST-AGT fusion proteins by glutathione sepharose) by subjecting the purified fractions to a protein concentration assay (Bradford, Anal Biochem 72:248-54, 1976). The expression yield of similar proteins in the soluble fraction (difference in point mutations) can be used as a measure for protein stability in the unpurified as well as the purified state (Ohage et al., J Mol Biol 291:1119-1128, 1999; Wirtz et al., Protein Sci 8: 2245-50, 1999). Therefore, this is taken as a measure of folding stability and aggregation tendency.
Protein expression from this vector is carried out in E. coli strain BL21. An exponentially growing culture is induced with 0.5 mM IPTG, and the expression is carried out for 3.5 h at 24° C.
Purification: The harvested cells are resuspended in a buffer containing 50 mM phosphate, 0.5 M NaCl, 1 mM DTT, supplemented with 1 mM PMSF and 2 μg/ml aprotinin, and disrupted by lysozyme and sonification. The cell debris are separated by centrifugation at 40000×g. The extract is applied to pre-equilibrated glutathione sepharose (Amersham) which is then washed with 20 bed volumes (50 mM phosphate, 0.5 M NaCl, 1 mM DTT). The mutated GST-AGT fusion protein is eluted with 10 mM reduced glutathione in 50 mM Tris·HCl pH 7.9. The purified protein is dialyzed against 50 mM HEPES pH 7.2; 1 mM DTT; 30% glycerol and then stored at −80° C.
Determination of protein yield: Purity and relative amounts of the GST-AGT fusion proteins are compared by running samples on SDS-PAGE. UV spectra of the pure fractions are recorded using a Perkin Elmer Lambda 10. For protein samples containing no significant amount of DNA, the extinction at 280 nm as a measure of protein content is compared to that of wild type hAGT or PGEG-hAGT that were purified under the same conditions.

[2] = Competition of N^9-substituted and N^9-unsubstituted O^6-benzylguanine substrates; type: biochemical; conditions: comparator not stated
Procedure: Such N^9-substituted O^6-alkylguanine substrates are the natural substrates of the wild type AGT. The ability of wild type AGT or mutant AGT to react with N^9-modified O^6-alkylguanine substrates is measured as the rate of its reaction with such substrates, e.g. with the low molecular weight N^9-cyclopentyl-O^6-benzylguanine in presence of biotinylated N^9-unsubstituted O^6-alkylguanine substrates in competition experiments. Subsequently, samples are subjected to Western blotting and detection with streptavidin derivates to obtain kinetic constants for these substrates. Alternatively, the reactivity towards such substrates is measured as the inhibition of the reaction of AGT with BG-Cy3. The reaction of AGT with BG-Cy3 is followed by an increase of Cy3 fluorescence intensity upon binding to AGT, after preincubation or in direct competition with the N^9-modified O^6-alkylguanine substrate.
Selected AGT mutants are subcloned into pGEX2T, expressed, purified and characterized as described in Example 1. Discrimination between N^9 substituted and N^9 unsubstituted O^6-benzylguanine substrates is evaluated by competition experiments for purified mutated GST-AGT in vitro with N^9-substituted and N′-unsubstituted O^6-benzylguanine. Aliquots of 0.2 μM GST-AGT are incubated with varying concentrations of N^9 substituted substrate (0, 0.5, up to 100 µM) and 0.5 µM biotinylated O^6-benzylguanine (BG-Bt, substance 3a of Juillerat et al., Chem Biol 10:313-317, 2003) in 50 mM HEPES pH 7.3 and 1 mM DTT at room temperature. After 45 min reactions are quenched by the addition of SDS-Laemmli buffer and heat denaturation. Samples are subjected to SDS-PAGE and Western blotting analysis (neutravidin-peroxidase conjugate (PIERCE), Renaissance reagent plus (NEN)). The intensity of the corresponding bands is quantified by a Kodak Image Station 440.

[3] = Periplasmic expression / stability under oxidizing conditions; parameters: species or system E. coli
Procedure: The activities towards AGT substrates are measured after purification without addition of reducing agents such as dithiothreitol or beta-mercaptoethanol. Alternatively, the activities of mutant AGT and wild type human are compared after their export into cellular compartments with oxidising redox potential (e.g. the periplasm of E. coli due to their fusion to appropriate signal sequences. Activity towards AGT substrates under reducing and oxidising conditions is compared by performing the reactions in the presence or absence of reducing agents such as dithiothreitol or beta-mercaptoethanol.
The mutant AGT gene of Example 1 is amplified and cloned as described in Example 1 with the oligonucleotides SEQ ID NO:3, SEQ ID NO:10 and SEQ ID NO:4, SEQ ID NO:9 causing the further mutation Cys62Ala in the gene upon their incorporation by PCR. Protein expression, purification and determination of yield is carried out as described in Example 1. The mutant gene is PCR amplified with the primers SEQ ID NO:11, SEQ ID NO:12 that contain SfiI restriction sites to subclone the gene in fusion to the g3 protein of filamentous phage in the vector pAK100 (Krebber et al., J Immunol Methods 201:35-55, 1997). […] The supernatant is directly subjected to quantification of protein yield via SDS-PAGE and activity assays as described in Example 1.
Stability under oxidizing conditions: The mutant gene is PCR amplified with the primers SEQ ID NO:11 and SEQ ID NO:28 to subclone the gene into pAK100, as described in Example 2. […] To compare the reactivity of […] (Juillerat et al., Chem Biol 10:313-317, 2003) and the mutant, samples are incubated with 1 µM BG-Bt for 50 min, quenched with SDS-Laemmli buffer and analyzed by western blotting using neutravidin peroxidase conjugate (Pierce) or a monoclonal mouse anti-FLAG IgG antibody (M2, Sigma) and a secondary anti-mouse-IgG::HRP conjugate, and Renaissance reagent plus (NEN). […] The anti-FLAG IgG antibody is used to estimate the total amount of soluble AGT protein, whereas neutravidin quantifies the reactive portion of it. […]

[4] = Activity assay with biotinylated O^6-benzylguanine (BG-Bt), Western blotting; type: biochemical; conditions: statement in words
Procedure: Activity towards O^6-benzylguanine substrates is measured as described by Juillerat et al., Chem Biol 10:313-317, 2003.
Activity assay: Purified mutated GST-AGT is incubated in vitro with a biotinylated O^6-benzylguanine (BG-Bt, substance 3a of Juillerat et al., Chem Biol 10:313-317, 2003). In a total reaction volume of 80 […]I, 0.2 µM GST-AGT are incubated with 1 µM substrate in 50 mM HEPES pH 7.2 and 1 mM DTT at room temperature. At several points of time an aliquot is quenched with 1 mM O^6-benzylguanine (Sigma) in SDS-Laemmli buffer and subjected to Western blotting analysis (neutravidin-peroxidase conjugate (PIERCE), Renaissance reagent plus (NEN)). The intensity of the corresponding bands is quantified by a Kodak Image Station 440.

B1: Cys62Ala, Gln115Ser, Gln116His, Lys125Ala, Ala127Thr, Arg128Ala, Cys150Asn, Ser151Ile, Ser152Asn, Asn157Gly, Ser159Glu, truncated after Gly182: particularly preferred hAGT mutant with the listed … (protein, UniProt P16455 1-207, looked up, variant C62A Q115S Q116H K125A A127T R128A C150N S151I S152N N157G S159E del183-207)
Methylated-DNA--protein-cystei …: MDKDCEMKRTTLDSPLGKLELSGCEQGLHEIKLLGKGTSAADAVEVPAPAAVLGGPEPLMQATAWLNAYFHQPEAIEEFPVPALHHPVFQQESFTRQVLWKLLKVVKFGEVISYSHLAALAGNPAATAAVGGAMRGNPVPILIPCHRVVNINGAVGGYEGGLAVKEWLLAHEGHRLGKPGLG
[1]
  expression yield in E. coli: increased expression yield
[2]
  reduced reactivity towards O^6-alkyl-N^9-deoxyribosylguanine or N^9-cyclopentyl-O^6-benzylguanine: retain reactivity
[3]
  sensitivity to oxidation: reduced sensitivity to oxidation
[4]
  activity towards O^6-benzylguanine substrates: increased reactivity
